T1: minor histocompatibility antigen HA-1, immunogenic H variant peptide on HLA-A*02:01 (human)
T1 peptide: VLHDDLLEA

B1: TCR H (TCR, V domains shown)
Valpha: GENVEQHPSTLSVQEGDSAVIKCTYSDSASNYFPWYKQELGKRPQLIIDIRSNVGEKKDQRIAVTLNKTAKHFSLHITETQPEDSAVYFCAAPLAGGGADGLTFGKGTHLIIQP
Vbeta: DTGVSQDPRHKITKRGQNVTFRCDPISEHNRLYWYRQTLGQGPEFLTYFQNEAQLEKSRLLSDRFSAERPKGSFSTLEIQRTEQGDSAMYLCASSTTLITGYTFGSGTRLTVV
B2: TCR B (TCR, V domains shown)
Valpha: SQQGEEDPQALSIQEGENATMNCSYKTSINNLQWYRQNSGRGLVHLILIRSNEREKHSGRLRVTLDTSKKSSSLLITASRAADTASYFCATAPGSGTYKYIFGTGTRLKVLA
Vbeta: DTGVSQDPRHKITKRGQNVTFRCDPISEHNRLYWYRQTLGQGPEFLTYFQNEAQLEKSRLLSDRFSAERPKGSFSTLEIQRTEQGDSAMYLCAAPPDTYNSPLHFGNGTRLTVT
B3: TCR G (TCR, V domains shown)
Valpha: SQQGEEDPQALSIQEGENATMNCSYKTSINNLQWYRQNSGRGLVHLILIRSNEREKHSGRLRVTLDTSKKSSSLLITASRAADTASYFCAGTGANNLFFGTGTRLTVIP
Vbeta: DTGVSQDPRHKITKRGQNVTFRCDPISEHNRLYWYRQTLGQGPEFLTYFQNEAQLEKSRLLSDRFSAERPKGSFSTLEIQRTEQGDSAMYLCASSLIRGETQYFGPGTRLLVL
B4: TCR I (TCR, V domains shown)
Valpha: KQEVTQIPAALSVPEGENLVLNCSFTDSAIYNLQWFRQDPGKGLTSLLLIQSSQREQTSGRLNASLDKSSGRSTLYIAASQPGDSATYLCAVRGTTSGTYKYIFGTGTRLKVLA
Vbeta: B3 Vbeta with L96F, I97L, R98A
B5: TCR N (TCR, V domains shown)
Valpha: GENVEQHPSTLSVQEGDSAVIKCTYSDSASNYFPWYKQELGKRPQLIIDIRSNVGEKKDQRIAVTLNKTAKHFSLHITETQPEDSAVYFCAAIVGNQFYFGTGTSLTVIP
Vbeta: B3 Vbeta with L96E, I97T, R98T, G99L, E100S, T101E, Y103F, L111T
B6: TCR Q (TCR, V domains shown)
Valpha: GENVEQHPSTLSVQEGDSAVIKCTYSDSASNYFPWYKQELGKRPQLIIDIRSNVGEKKDQRIAVTLNKTAKHFSLHITETQPEDSAVYFCAASNPTGANSKLTFGKGITLSVRP
Vbeta: B3 Vbeta with I97V, G99N, T101K, Q102L, Y103F, P106S, R109Q, L111S
B7: TCR O (TCR, V domains shown)
Valpha: B5 Valpha with A92M, I93R, V94N, G95N, Q97D, F98M, Y99R, T102A, S105R, I109K
Vbeta: B3 Vbeta with I97T, R98T, G99L, E100D, L111T
B8: TCR M (TCR, V domains shown)
Valpha: B4 Valpha with T95S
Vbeta: B3 Vbeta with I97V, R98A
B9: TCR L (TCR, V domains shown)
Valpha: KQEVTQIPAALSVPEGENLVLNCSFTDSAIYNLQWFRQDPGKGLTSLLLIQSSQREQTSGRLNASLDKSSGRSTLYIAASQPGDSATYLCAVTRTGANNLFFGTGTRLTVIP
Vbeta: DTGVSQDPRHKITKRGQNVTFRCDPISEHNRLYWYRQTLGQGPEFLTYFQNEAQLEKSRLLSDRFSAERPKGSFSTLEIQRTEQGDSAMYLCASSLGVLGIGYTFGSGTRLTVV
B10: TCR R (TCR, V domains shown)
Valpha: SQQGEEDPQALSIQEGENATMNCSYKTSINNLQWYRQNSGRGLVHLILIRSNEREKHSGRLRVTLDTSKKSSSLLITASRAADTASYFCATEMNSNYQLIWGAGTKLIIKP
Vbeta: DTGVSQDPRHKITKRGQNVTFRCDPISEHNRLYWYRQTLGQGPEFLTYFQNEAQLEKSRLLSDRFSAERPKGSFSTLEIQRTEQGDSAMYLCASSPLKGSNYGYTFGSGTRLTVV
B11: TCR J (TCR, V domains shown)
Valpha: QKEVEQDPGPLSVPEGAIVSLNCTYSNSAFQYFMWYRQYSRKGPELLMYTYSSGNKEDGRFTAQVDKSSKYISLFIRDSQPSDSATYLCAMRATSGTYKYIFGTGTRLKVLA
Vbeta: DTGVSQDPRHKITKRGQNVTFRCDPISEHNRLYWYRQTLGQGPEFLTYFQNEAQLEKSRLLSDRFSAERPKGSFSTLEIQRTEQGDSAMYLCAVPGGSSYNEQFFGPGTRLTVL
B12: TCR T (TCR, V domains shown)
Valpha: SQQGEEDPQALSIQEGENATMNCSYKTSINNLQWYRQNSGRGLVHLILIRSNEREKHSGRLRVTLDTSKKSSSLLITASRAADTASYFCATPSGNTPLVFGKGTRLSVIA
Vbeta: B11 Vbeta with F45L, V94S, P95S, G96Q, G97L, S98A, S99G, Y100V, N101I
B13: TCR P (TCR, V domains shown)
Valpha: AQSVSQHNHHVILSEAASLELGCNYSYGGTVNLFWYVQYPGQHLQLLLKYFSGDPLVKGIKGFEAEFIKSKFSFNLRKPSVQWSDTAEYFCAVRDSGAGSYQLTFGKGTKLSVIP
Vbeta: B11 Vbeta with V94S, P95L, G96T, S98T, S99V
B14: TCR K (TCR, V domains shown)
Valpha: DAKTTQPNSMESNEEEPVHLPCNHSTISGTDYIHWYRQLPSQGPEYVIHGLTSNVNNRMASLAIAEDRKSSTLILHRATLRDAAVYYCILRAGSGTYKYIFGTGTRLKVLA
Vbeta: B11 Vbeta with V94S, P95S, G96P, S98T, S99V
B15: TCR S (TCR, V domains shown)
Valpha: DAKTTQPPSMDCAEGRAANLPCNHSTISGNEYVYWYRQIHSQGPQYIIHGLKNNETNEMASLIITEDRKSSTLILPHATLRDTAVYYCIVRASTSGTYKYIFGTGTRLKVLA
Vbeta: B11 Vbeta with V94S, P95S, G96P, S98T, S99V
B16: TCR F (TCR, V domains shown)
Valpha: GENVEQHPSTLSVQEGDSAVIKCTYSDSASNYFPWYKQELGKRPQLIIDIRSNVGEKKDQRIAVTLNKTAKHFSLHITETQPEDSAVYFCAAHLTGGGNKLTFGTGTQLKVEL
Vbeta: DTGVSQDPRHKITKRGQNVTFRCDPISEHNRLYWYRQTLGQGPEFLTYFQNEAQLEKSRLLSDRFSAERPKGSFSTLEIQRTEQGDSAMYLCASSSRAGGETQYFGPGTRLLVL
B17: TCR C (TCR, V domains shown)
Valpha: B4 Valpha with G94P, T95R
Vbeta: DTGVSQDPRHKITKRGQNVTFRCDPISEHNRLYWYRQTLGQGPEFLTYFQNEAQLEKSRLLSDRFSAERPKGSFSTLEIQRTEQGDSAMYLCASTELSGNTIYFGEGSWLTVV
B18: TCR E (TCR, V domains shown)
Valpha: AQSVAQPEDQVNVAEGNPLTVKCTYSVSGNPYLFWYVQYPNRGLQFLLKYITGDNLVKGSYGFEAEFNKSQTSFHLKKPSALVSDSALYFCAVRGPTSGTYKYIFGTGTRLKVLA
Vbeta: B3 Vbeta with I97V, R98S, E100N, T101E, Y103F, L111T
B19: TCR X (TCR, V domains shown)
Valpha: GENVEQHPSTLSVQEGDSAVIKCTYSDSASNYFPWYKQELGKRPQLIIDIRSNVGEKKDQRIAVTLNKTAKHFSLHITETQPEDSAVYFCVVLGGAGNMLTFGGGTRLMVKP
Vbeta: B1 Vbeta with T96L, L98V, I99S, T100D
B20: TCR D (TCR, V domains shown)
Valpha: B18 Valpha with G95A
Vbeta: B3 Vbeta with I97V, R98S, E100N, T101E, Y103F, L111T
B21: TCR W (TCR, V domains shown)
Valpha: B18 Valpha with G95D
Vbeta: B3 Vbeta with I97V, R98Q, E100N, T101E, Y103F, L111T
B22: TCR V (TCR, V domains shown)
Valpha: AQTVTQSQPEMSVQEAETVTLSCTYDTSENNYYLFWYKQPPSRQMILVIRQEAYKQQNATENRFSVNFQKAAKSFSLKISDSQLGDTAMYFCALYSGAGSYQLTFGKGTKLSVIP
Vbeta: B10 Vbeta with P96L, L97A, K98A, S100M, Y102T, G103E, Y104A, T105F, S108Q
B23: TCR A (TCR, V domains shown)
Valpha: AQSVAQPEDQVNVAEGNPLTVKCTYSVSGNPYLFWYVQYPNRGLQFLLKYITGDNLVKGSYGFEAEFNKSQTSFHLKKPSALVSDSALYFCAVRGGSYKYIFGTGTRLKVLA
Vbeta: B11 Vbeta with V94S, P95T, G96P, S98T, S99V

Substitutions are numbered along the chain they refer to. Values joined by “and” are separate entries in the source; they are usually repeats but may differ in a detail not shown here. Equal values may be shown once.

In one assay the target is T1, minor histocompatibility antigen HA-1, …. Nature of the assay: CD69 on TCR-transduced Jurkat J.RT3-T3.5-CD8; overnight with A*0201 LCLs (1:1) and titrated HA-1 H peptide; given as a range, upper bound given; full-length, on cells.
Consider B1, for which the EC50 of peptide is ≤ 100 ng/mL and ≤ 100 nM. Still for that read-out and setting: to B2 belongs ≤ 100 ng/mL and ≤ 100 nM; to B3, ≤ 100 ng/mL and ≤ 100 nM; to B4, ≤ 100 ng/mL and ≤ 100 nM. Still for that read-out and setting: then B5, with ≤ 100 ng/mL and ≤ 100 nM.

On to B6, for which the EC50 of peptide is ≤ 1000 ng/mL and ≤ 1 µM. Same read-out and setting: to B7 belongs ≤ 100 ng/mL and ≤ 100 nM.

On to B8, for which the EC50 of peptide was ≤ 100 ng/mL and ≤ 100 nM. Same read-out and setting: then B9, with ≤ 100 ng/mL and ≤ 100 nM; and B10, with ≤ 1000 ng/mL and ≤ 1 µM.

As for B11, the EC50 of peptide was ≤ 100 ng/mL and ≤ 100 nM. Turning to B12, the EC50 of peptide was ≤ 1000 ng/mL and ≤ 1 µM. On the same count and under the same terms, to B13 belongs ≤ 100 ng/mL and ≤ 100 nM; to B14, ≤ 100 ng/mL and ≤ 100 nM; to B15, ≤ 1000 ng/mL and ≤ 1 µM.

A further assay has the same target. The assay can be described thus: multimer staining.
On to B16, for which the binding result was “recognises”. Same read-out and setting: then B17, with “recognises”; and B18, with “recognises”. Same read-out and setting: to B19 belongs “recognises”. The same measure, in the same setting: to B20 belongs “recognises”; to B21, “recognises”. As to B22, the binding result is “recognises”. In the case of B23, the binding result is given as “recognises”.

For the origin of these results see patent US20240270813A1 (UNIVERSITY OF PITTSBURGH OF THE COMMONWEALTH SYSTEM OF …, published 2024).
